From article PMC8191777
Numbering of substitutions follows the chain as printed.

Experiments:
[1] = biological target: T1, TbTRF-lMyb280-382 (Trypanosoma brucei) (UniProt Q4VHG6); test: EMSA
T1 sequence: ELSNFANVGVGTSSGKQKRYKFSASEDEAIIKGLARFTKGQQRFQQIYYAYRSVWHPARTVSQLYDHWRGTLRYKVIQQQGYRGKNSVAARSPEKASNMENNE

[2] = biological target: T2, TbTRF-lMyb280-382 R298E R298E (Trypanosoma brucei) (UniProt Q4VHG6); test: EMSA
T2 sequence: T1 sequence with R19E

## UUAGGGUUAGGGUUAGGGUUAGGGUUAGGGUUAGGGUUAGGGUUAGGGUUAGGGUUAGGGUUAGGGUUAGGG [ss(UUAGGG)12]
[1]
  Kd: 268 nM
[2]
  Kd: 5 nM

## CCCUAACCCUAACCCUAACCCUAACCCUAACCCUAACCCUAACCCUAACCCUAACCCUAACCCUAACCCUAA [ss(CCCUAA)12]
[1]
  Kd: 17200 nM
[2]
  Kd: 36 nM
